This test addresses T1, Recombinant human Gβ1γ2 (human, UniProt P62873 1-340; P59768 1-71).
T1 construct: G-protein beta 1 subunit, human, recombinant; G-protein gamma 2 subunit, human, recombinant; Preformed heterodimer bought as such; detected by an anti-Gβ antibody; also called Gβγ; purified Gβγ; source: bought: Calbiochem-Merck Millipore (recombinant)
In words: pull-down; competition: GST-AGS8-C (100 nM) incubated with recombinant human Gβ1γ2 (10 nM) in the presence of rising doses of peptide CP1 or CP9, adsorbed to a glutathione matrix; immunoblot with densitometry, n = 6. The settings on record: both partners purified.

The source of these data is PMC3954831, “Protection of Cardiomyocytes from the Hypoxia-Mediated Injury by a Peptide Targeting the Activator of G-Protein Signaling 8” (PLoS ONE, 2014).

B1: AGS8-peptide CP1 (peptide)
peptide: APRNITVVAMEGCHSFVIVDWNKAIPGDV
notes: About 97% HPLC purity; source: synthetic peptide (Invitrogen)
With B1, the IC50 worked out at 6.73 µM.

B2: AGS8-peptide CP9 (peptide)
peptide: SFVIVDWNKAIPGDVVTGYLVYSASYEDFI
notes: as for B1
For the molecule B2, the IC50 was determined as 2.77 µM.
